US20150065381A1
Values joined by “and” are separate entries in the source; they are usually repeats but may differ in a detail not shown here. Identical values can stand only once.

Tests used:
[1] = target: BG505 envelope (gp120 monomer released from lysed pseudovirus) (HIV-1); test: antigen capture ELISA, mAb 0.3 ug/ml, plate 2
[2] = target: aMLV envelope (from lysed pseudovirus); test: antigen capture ELISA, mAb 0.3 ug/ml, plate 2
[3] = target: HIV-1 envelope clone G-011.c05 (multiclade gp160 clone panel) (HIV-1); test: capture ELISA, plate 2, mAb 0.8 ug/ml
[4] = target: HIV-1 envelope clone BF-002.c05 (multiclade gp160 clone panel) (HIV-1); test: capture ELISA, plate 2, mAb 0.8 ug/ml
[5] = target: HIV-1 envelope of gp160 clone B-Acute-010.c08 (HIV-1); test: capture ELISA, plate 2, mAb 0.8 ug/ml
[6] = target: HIV-1 envelope clone F1-002.c11 (multiclade gp160 clone panel) (HIV-1); test: capture ELISA, plate 2, mAb 0.8 ug/ml
[7] = target: HIV-1 envelope of gp160 clone B-Acute-010.c09 (HIV-1); test: capture ELISA, plate 2, mAb 0.8 ug/ml
[8] = target: HIV-1 JRCSF envelope (HIV-1) (UniProt P20871); test: capture ELISA, plate 2, mAb 0.8 ug/ml
[9] = target: HIV-1 envelope clone F1-002.c16 (multiclade gp160 clone panel) (HIV-1); test: capture ELISA, plate 2, mAb 0.8 ug/ml
[10] = target: HIV-1 envelope of gp160 clone AG-010.c11 (HIV-1); test: capture ELISA, plate 2, mAb 0.8 ug/ml
[11] = target: HIV-1 envelope of gp160 clone B-Acute-008.c11 (HIV-1); test: capture ELISA, plate 2, mAb 0.8 ug/ml
[12] = target: HIV-1 envelope clone G-011.c02 (multiclade gp160 clone panel) (HIV-1); test: capture ELISA, plate 2, mAb 0.8 ug/ml
[13] = target: HIV-1 JRFL envelope (HIV-1); test: capture ELISA, plate 1, mAb 7.5 ug/ml
[14] = target: HIV-1 envelope clone BF-002.c05 (multiclade gp160 clone panel) (HIV-1); test: capture ELISA, plate 1, mAb 7.5 ug/ml
[15] = target: HIV-1 envelope of gp160 clone AG-010.c14 (HIV-1); test: capture ELISA, plate 1, mAb 7.5 ug/ml
[16] = target: HIV-1 envelope of gp160 clone B-Acute-010.c09 (HIV-1); test: capture ELISA, plate 1, mAb 7.5 ug/ml
[17] = target: HIV-1 envelope clone BF-002.c08 (multiclade gp160 clone panel) (HIV-1); test: capture ELISA, plate 1, mAb 7.5 ug/ml
[18] = target: HIV-1 envelope clone F1-002.c16 (multiclade gp160 clone panel) (HIV-1); test: capture ELISA, plate 1, mAb 7.5 ug/ml
[19] = target: HIV-1 envelope of gp160 clone AG-010.c11 (HIV-1); test: capture ELISA, plate 1, mAb 7.5 ug/ml
[20] = target: HIV-1 envelope of gp160 clone B-Acute-008.c11 (HIV-1); test: capture ELISA, plate 1, mAb 7.5 ug/ml
[21] = target: HIV-1 envelope of gp160 clone B-Acute-009-c08 (HIV-1); test: capture ELISA, plate 2, mAb 7.5 ug/ml
[22] = target: HIV-1 envelope clone G-011.c05 (multiclade gp160 clone panel) (HIV-1); test: capture ELISA, plate 2, mAb 7.5 ug/ml
[23] = target: HIV-1 envelope clone BF-002.c05 (multiclade gp160 clone panel) (HIV-1); test: capture ELISA, plate 2, mAb 7.5 ug/ml
[24] = target: HIV-1 envelope of gp160 clone B-Acute-010.c08 (HIV-1); test: capture ELISA, plate 2, mAb 7.5 ug/ml
[25] = target: HIV-1 envelope of gp160 clone B-Chronic-014.c02 (HIV-1); test: capture ELISA, plate 2, mAb 7.5 ug/ml
[26] = target: HIV-1 envelope of gp160 clone AG-010.c14 (HIV-1); test: capture ELISA, plate 2, mAb 7.5 ug/ml
[27] = target: HIV-1 envelope clone F1-002.c11 (multiclade gp160 clone panel) (HIV-1); test: capture ELISA, plate 2, mAb 7.5 ug/ml
[28] = target: HIV-1 envelope of gp160 clone B-Acute-010.c09 (HIV-1); test: capture ELISA, plate 2, mAb 7.5 ug/ml
[29] = target: HIV-1 envelope clone BF-002.c08 (multiclade gp160 clone panel) (HIV-1); test: capture ELISA, plate 2, mAb 7.5 ug/ml
[30] = target: HIV-1 JRCSF envelope (HIV-1) (UniProt P20871); test: capture ELISA, plate 2, mAb 7.5 ug/ml
[31] = target: HIV-1 envelope clone F1-002.c16 (multiclade gp160 clone panel) (HIV-1); test: capture ELISA, plate 2, mAb 7.5 ug/ml
[32] = target: HIV-1 envelope of gp160 clone AG-010.c11 (HIV-1); test: capture ELISA, plate 2, mAb 7.5 ug/ml
[33] = target: HIV-1 envelope of gp160 clone B-Acute-008.c11 (HIV-1); test: capture ELISA, plate 2, mAb 7.5 ug/ml
[34] = target: HIV-1 envelope clone G-011.c02 (multiclade gp160 clone panel) (HIV-1); test: capture ELISA, plate 2, mAb 7.5 ug/ml
[35] = target: HIV-1 16055 envelope (HIV-1); test: capture ELISA, plate 2, mAb 0.8 ug/ml
[36] = target: HIV-1 JRFL envelope (HIV-1); test: capture ELISA, plate 2, mAb 7.5 ug/ml
[37] = target: HIV-1 16055 envelope (HIV-1); test: capture ELISA, plate 2, mAb 7.5 ug/ml

Substance	ELISA OD [1] [OD]	ELISA OD [2]	ELISA OD [3] [OD]	ELISA OD [5] [OD]	ELISA OD [7] [OD]	ELISA OD [8]	ELISA OD [10] [OD]	ELISA OD [11] [OD]	ELISA OD [12] [OD]	ELISA OD [15] [OD]	ELISA OD [16] [OD]	ELISA OD [19] [OD]	ELISA OD [20] [OD]	ELISA OD [21] [OD]	ELISA OD [22] [OD]	ELISA OD [24] [OD]	ELISA OD [25] [OD]	ELISA OD [26] [OD]	ELISA OD [28] [OD]	ELISA OD [30]	also measured
PG16 (antibody)	0.067	0.096 OD and 0.103 OD	0.097	0.132	0.105	0.135 OD and 0.136 OD	0.173	0.146	0.062	0.817	0.282	0.332	0.205	0.092	0.153	0.301	0.513	0.8	0.244	0.226 OD and 0.245 OD	ELISA OD [4]: 0.586 OD; ELISA OD [6]: 0.12 OD; ELISA OD [9]: 0.302 OD; ELISA OD [13]: 0.173 OD and 0.159 OD; ELISA OD [14]: 0.971 OD; ELISA OD [17]: 0.168 OD; ELISA OD [18]: 0.244 OD; ELISA OD [23]: 0.764 OD; ELISA OD [27]: 0.154 OD; ELISA OD [29]: 0.164 OD; ELISA OD [31]: 0.217 OD; ELISA OD [32]: 0.302 OD; ELISA OD [33]: 0.215 OD; ELISA OD [34]: 0.097 OD
PGT145 (antibody)	0.066	0.065 OD and 0.157 OD	0.096	0.125	0.065	0.087 OD and 0.063 OD	0.074	0.095	0.071	0.07	0.084	0.082	0.146	0.15	0.138	0.276	0.092	0.094	0.11	0.111 OD and 0.089 OD	ELISA OD [4]: 0.192 OD; ELISA OD [35]: 0.067 OD and 0.064 OD; ELISA OD [6]: 0.067 OD; ELISA OD [9]: 0.375 OD; ELISA OD [13]: 0.076 OD and 0.075 OD; ELISA OD [36]: 0.093 OD and 0.082 OD; ELISA OD [23]: 0.649 OD; ELISA OD [37]: 0.117 OD and 0.09 OD; ELISA OD [27]: 0.099 OD; ELISA OD [29]: 0.074 OD; ELISA OD [31]: 0.518 OD; ELISA OD [32]: 0.146 OD; ELISA OD [33]: 0.148 OD; ELISA OD [34]: 0.112 OD
PG9 (antibody)	0.162	0.057 OD and 0.063 OD	0.116	0.125	0.067	0.146 OD and 0.147 OD	0.411	0.11	0.052	1.22	0.199	0.891	0.363	0.114	0.235	0.33	1.48	0.852	0.151	0.211 OD and 0.205 OD	ELISA OD [35]: 0.169 OD and 0.18 OD; ELISA OD [13]: 0.072 OD and 0.11 OD; ELISA OD [36]: 0.07 OD and 0.054 OD; ELISA OD [37]: 0.263 OD and 0.251 OD; ELISA OD [32]: 0.65 OD; ELISA OD [33]: 0.204 OD; ELISA OD [34]: 0.099 OD
PGV04 (antibody)	0.45	0.095 OD and 0.115 OD	0.168	0.659	0.913	1.03 OD and 1.35 OD	0.103	0.094	0.326	0.293	2.87	0.184	0.07	0.459	0.719	3.25	4	1.68	3.44	2.78 OD and 2.65 OD	ELISA OD [4]: 2.07 OD; ELISA OD [6]: 0.084 OD; ELISA OD [9]: 0.139 OD; ELISA OD [14]: 4 OD; ELISA OD [17]: 2.72 OD; ELISA OD [18]: 0.54 OD; ELISA OD [23]: 4 OD; ELISA OD [27]: 0.506 OD; ELISA OD [29]: 3.2 OD; ELISA OD [31]: 0.626 OD; ELISA OD [32]: 0.22 OD; ELISA OD [33]: 0.109 OD; ELISA OD [34]: 1.25 OD
PGT151 (antibody)	0.057	0.053 OD and 0.128 OD	0.079	0.135	0.087	0.064 OD and 0.055 OD	0.061	0.203	0.081	0.148	0.081	0.081	0.256	0.191	0.125	0.21	0.462	0.191	0.121	0.098 OD and 0.121 OD	ELISA OD [4]: 0.133 OD; ELISA OD [35]: 0.06 OD; ELISA OD [6]: 0.072 OD; ELISA OD [9]: 0.082 OD; ELISA OD [13]: 0.088 OD and 0.08 OD; ELISA OD [14]: 0.286 OD; ELISA OD [17]: 0.087 OD; ELISA OD [18]: 0.105 OD; ELISA OD [36]: 0.138 OD and 0.149 OD; ELISA OD [23]: 0.253 OD; ELISA OD [37]: 0.119 OD and 0.118 OD; ELISA OD [27]: 0.135 OD; ELISA OD [29]: 0.102 OD; ELISA OD [31]: 0.138 OD; ELISA OD [32]: 0.116 OD; ELISA OD [33]: 0.209 OD; ELISA OD [34]: 0.197 OD
